The text below walks through data of paper PMC12234471, “The apicoplast localized isocitrate dehydrogenase is needed for de novo fatty acid synthesis in the apicoplast of Toxoplasma gondii” (Frontiers in Cellular and Infection Microbiology, 2025).

As a reminder, the Km is the concentration of substrate that gives half-maximal velocity.

Substrate in the data set: O=C(O)C[C@H](C(=O)O)[C@@H](O)C(=O)O
Description: purified protein. Format: biochemical, Toxoplasma gondii. Particulars: NADP+ co-substrate; Solarbio ICDHm kit.

B1: TgICDH1 (Toxoplasma gondii) (protein)
chain: QRIKVDQPVVEMDGDEMARVIWAMIKEKLILPYLDIPLMYYDLSIQHRDKTDDQVTIDAALAIKRHGVGVKCATITPDEQRVKEFNLKKMWKSPNATIRNTLDGTIFRAPILMKNVPRLVPSWTKPIIIGRHAHADQYKALDFTVDKPGRFVMSFIPADKSNPEVHEVYEFKGGGVALGMYNTDASIKGFAHSCFQYALDQKMPLYLSTKNTVLKKYDGRFKDIFQTIYEKEYKQKFEEAGLWYEHRLIDDMVAQAIKSSGGFVWACKNYDGDVQSDVVAQGYGSLGLMTSVLVCPDGKTIEAEAAHGTVTRHYRQYQKGIKTSTNPIASIYAWTRSLGHRAKLDNNQKLKEFVEALEDACVETVEAGFMTKDLALAIKGDKLTDRDYLCTEDFMDKLARVAERKLLERQIISKA
notes: truncation AA180-594 (leader peptide removed), cloned from RH cDNA in pET-sumo, His-tag resin purified from E. coli BL21
For B1, the Km came to 160.7 µM.
